The source of these data is paper doi:10.1101/2025.07.11.664400 (bioRxiv, 2025).

One data set concerns the target T1, RecC (E. coli, UniProt P07648).
T1 sequence: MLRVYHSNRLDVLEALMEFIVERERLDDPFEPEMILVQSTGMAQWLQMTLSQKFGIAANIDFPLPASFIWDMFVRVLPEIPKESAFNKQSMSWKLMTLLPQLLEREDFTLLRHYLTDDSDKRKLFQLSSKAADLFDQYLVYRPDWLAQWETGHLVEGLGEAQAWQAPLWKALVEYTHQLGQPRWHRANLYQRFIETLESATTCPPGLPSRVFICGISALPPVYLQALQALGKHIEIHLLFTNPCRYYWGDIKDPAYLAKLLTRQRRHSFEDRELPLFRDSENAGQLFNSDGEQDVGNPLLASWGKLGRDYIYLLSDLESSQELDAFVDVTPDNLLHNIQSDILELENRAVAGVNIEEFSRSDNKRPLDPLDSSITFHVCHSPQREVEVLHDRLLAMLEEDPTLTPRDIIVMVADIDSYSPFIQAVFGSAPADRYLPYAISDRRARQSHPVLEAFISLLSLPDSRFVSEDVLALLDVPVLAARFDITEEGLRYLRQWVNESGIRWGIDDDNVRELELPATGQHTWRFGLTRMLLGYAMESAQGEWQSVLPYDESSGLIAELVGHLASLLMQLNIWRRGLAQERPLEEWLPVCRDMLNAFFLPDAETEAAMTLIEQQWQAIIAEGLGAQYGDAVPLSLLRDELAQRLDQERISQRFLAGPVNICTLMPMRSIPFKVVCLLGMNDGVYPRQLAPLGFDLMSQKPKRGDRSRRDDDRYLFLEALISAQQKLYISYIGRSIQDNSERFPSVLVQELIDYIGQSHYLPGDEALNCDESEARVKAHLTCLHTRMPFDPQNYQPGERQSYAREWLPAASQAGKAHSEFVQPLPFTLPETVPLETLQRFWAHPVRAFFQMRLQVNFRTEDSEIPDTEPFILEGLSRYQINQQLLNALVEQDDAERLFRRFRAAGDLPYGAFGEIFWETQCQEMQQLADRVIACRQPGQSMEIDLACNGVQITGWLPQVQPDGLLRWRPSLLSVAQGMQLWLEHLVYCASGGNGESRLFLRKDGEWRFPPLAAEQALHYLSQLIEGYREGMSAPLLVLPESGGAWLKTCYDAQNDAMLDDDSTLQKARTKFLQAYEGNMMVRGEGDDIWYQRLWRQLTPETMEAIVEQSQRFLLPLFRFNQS
Kind of data set: AUC.

Another data set has as its target RecBCD (Escherichia coli, UniProt P08394;P07648;P04993 1-1180;1-1122;1-608). Kind of data set: fluorescence competition.
The next data set deals with RecBΔNucCD (Escherichia coli, UniProt P08394;P07648;P04993 1-929;1-1122;1-608). Kind of data set: fluorescence competition.

B1: RecD (natural protein)
chain: MKLQKQLLEAVEHKQLRPLDVQFALTVAGDEHPAVTLAAALLSHDAGEGHVCLPLSRLENNEASHPLLATCVSEIGELQNWEECLLASQAVSRGDEPTPMILCGDRLYLNRMWCNERTVARFFNEVNHAIEVDEALLAQTLDKLFPVSDEINWQKVAAAVALTRRISVISGGPGTGKTTTVAKLLAALIQMADGERCRIRLAAPTGKAAARLTESLGKALRQLPLTDEQKKRIPEDASTLHRLLGAQPGSQRLRHHAGNPLHLDVLVVDEASMIDLPMMSRLIDALPDHARVIFLGDRDQLASVEAGAVLGDICAYANAGFTAERARQLSRLTGTHVPAGTGTEAASLRDSLCLLQKSYRFGSDSGIGQLAAAINRGDKTAVKTVFQQDFTDIEKRLLQSGEDYIAMLEEALAGYGRYLDLLQARAEPDLIIQAFNEYQLLCALREGPFGVAGLNERIEQFMQQKRKIHRHPHSRWYEGRPVMIARNDSALGLFNGDIGIALDRGQGTRVWFAMPDGNIKSVQPSRLPEHETTWAMTVHKSQGSEFDHAALILPSQRTPVVTRELVYTAVTRARRRLSLYADERILSAAIATRTERRSGLAALFSSRE
For the molecule B1, the binding result with RecC was “binds”.

B2: RecB^ΔNuc (RecB with the nuclease domain, residues 930-1180, deleted) (domain or fragment)
chain: MSDVAETLDPLRLPLQGERLIEASAGTGKTFTIAALYLRLLLGLGGSAAFPRPLTVEELLVVTFTEAATAELRGRIRSNIHELRIACLRETTDNPLYERLLEEIDDKAQAAQWLLLAERQMDEAAVFTIHGFCQRMLNLNAFESGMLFEQQLIEDESLLRYQACADFWRRHCYPLPREIAQVVFETWKGPQALLRDINRYLQGEAPVIKAPPPDDETLASRHAQIVARIDTVKQQWRDAVGELDALIESSGIDRRKFNRSNQAKWIDKISAWAEEETNSYQLPESLEKFSQRFLEDRTKAGGETPRHPLFEAIDQLLAEPLSIRDLVITRALAEIRETVAREKRRRGELGFDDMLSRLDSALRSESGEVLAAAIRTRFPVAMIDEFQDTDPQQYRIFRRIWHHQPETALLLIGDPKQAIYAFRGADIFTYMKARSEVHAHYTLDTNWRSAPGMVNSVNKLFSQTDDAFMFREIPFIPVKSAGKNQALRFVFKGETQPAMKMWLMEGESCGVGDYQSTMAQVCAAQIRDWLQAGQRGEALLMNGDDARPVRASDISVLVRSRQEAAQVRDALTLLEIPSVYLSNRDSVFETLEAQEMLWLLQAVMTPERENTLRSALATSMMGLNALDIETLNNDEHAWDVVVEEFDGYRQIWRKRGVMPMLRALMSARNIAENLLATAGGERRLTDILHISELLQEAGTQLESEHALVRWLSQHILEPDSNASSQQMRLESDKHLVQIVTIHKSKGLEYPLVWLPFITNFRVQEQAFYHDRHSFEAVLDLNAAPESVDLAEAERLAEDLRLLYVALTRSVWHCSLGVAPLVRRRGDKKGDTDVHQSALGRLLQKGEPQDAAGLRTCIEALCDDDIAWQTAQTGDNQPWQVNDVSTAELNAKTLQRLPGDNWRVTSYSGLQQRGHGIAQDLMPRLDVDAA
Consider B2, for which, in the data set with RecC, the binding result is on record as “binds”.

B3: 3'-dT4 (dsDNA)
DNA 1: CCATGGCTCCTGAGCTAGCTGCAGTAGCCTAAAGGATGAAACTAGGATCTTATGCTCCAGTTTT
DNA 2: CTGGAGCATAAGATCCTAGTTTCATCCTTTAGGCTACTGCAGCTAGCTCAGGAGCCATGGTTTT
Take B3: the Ka with RecBCD came to 4.7e+07 M⁻¹; with RecBΔNucCD it was 3.3e+08 M⁻¹.

B4: 3'-dT2 (dsDNA)
DNA 1: CCATGGCTCCTGAGCTAGCTGCAGTAGCCTAAAGGATGAAACTAGGATCTTATGCTCCAGTT
DNA 2: CTGGAGCATAAGATCCTAGTTTCATCCTTTAGGCTACTGCAGCTAGCTCAGGAGCCATGGTT
For B4, the results for the Ka with RecBCD and in the data set with RecBΔNucCD were 2.1e+07 M⁻¹ and 9.6e+07 M⁻¹, respectively.
